Data reported in publication PMC6102588, “Quaternary Structure, Salt Sensitivity, and Allosteric Regulation of β-AMYLASE2 From Arabidopsis thaliana” (Frontiers in Plant Science, 2018).
Positions count from the first letter of the chain named. Names may count otherwise.

B1: Arabidopsis thaliana β-AMYLASE2 (BAM2), wild type, without chloroplast transit peptide (enzyme, UniProt O65258 56-542, looked up)
chain: AESTEEDRVPIDDDDDSTDQLVDEEIVHFEERDFAGTACVPVYVMLPLGVIDMNSEVVEPEELLDQLRTLKSVNVDGVMVDCWWGIVESHTPQVYNWSGYKKLFQMIRELGLKIQVVMSFHECGGNVGDDVHIQIPEWVREIGQSNPDIYFTDSAGRRNTECLTWGIDKQRVLRGRTALEVYFDYMRSFRVEFDEFFEEKIIPEIEVGLGPCGELRYPSYPAQFGWKYPGIGEFQCYDKYLMNSLKEAAEVRGHSFWGRGPDNTETYNSTPHGTGFFRDGGDYDSYYGRFFLNWYSRVLIDHGDRVLAMANLAFEGTCIAAKLSGIHWWYKTASHAAELTAGFYNSSNRDGYGPIAAMFKKHDAALNFTCVELRTLDQHEDFPEALADPEGLVWQVLNAAWDASIPVASENALPCYDREGYNKILENAKPLTDPDGRHLSCFTYLRLNPTLMESQNFKEFERFLKRMHGEAVPDLGLAPGTQETNPE
notes: β-amylase 2 (BAM2), Arabidopsis thaliana, NP_191958.3, lacking its predicted 55 amino acid N-terminal chloroplast transit peptide; the start at residue 56 is worked out from that statement; Expression vector in pETDuet-1; Predicted monomer mass without transit peptide is 57.1 kDa; also called WT BAM2; WT; source: E. coli BL21+, purified by the N-terminal 6-His tag
B2: BAM2 F238A mutant (Interface B) (enzyme, Arabidopsis thaliana, UniProt O65258 56-542, looked up)
chain: B1 chain with F183A
notes: β-amylase 2 (BAM2), Arabidopsis thaliana, NP_191958.3, lacking its predicted 55 amino acid N-terminal chloroplast transit peptide, with Phe238 changed to Ala; Made by QuikChange mutagenesis in the WT pETDuet-1 construct (Monroe et al., 2017); also called B2_F238A; source: E. coli BL21+, purified by the N-terminal 6-His tag
B3: BAM2 W456A mutant (Interface A) (enzyme, Arabidopsis thaliana, UniProt O65258 56-542, looked up)
chain: B1 chain with W401A
notes: β-amylase 2 (BAM2), Arabidopsis thaliana, NP_191958.3, lacking its predicted 55 amino acid N-terminal chloroplast transit peptide, with Trp456 changed to Ala; Made by QuikChange mutagenesis in the WT pETDuet-1 construct (Monroe et al., 2017); also called B2_W456A; source: E. coli BL21+, purified by the N-terminal 6-His tag

Columns and labels:
[1] = target: BAM2 N-terminal deletion mutant (NDel), lacking the acidic region (Arabidopsis thaliana) (UniProt O65258); assay: SEC-MALS; proteins at 1-2 mg mL^-1 injected into a 4.6 x 300 mm size-exclusion column, 0.5 mL min^-1, 10 mM MOPS, pH 7, 250 mM KCl; masses are averages, n = 3
[2] = target: the molecule itself; assay: as above

Molecule	stoichiometry N [1]	stoichiometry N [2]
BAM2 N-terminal deletion mutant (NDel), lacking the acidic region (from UniProt O65258 86-542) (enzyme)	4	–
B1	–	4
B2	–	2
B3	–	2
